± gives the standard error. For some assays here: This sample holds only a part of the variants without activity.
B1: glmS ribozyme (parent)
chain: AUAAAAGCGCCAGAACUACAGAAAUGUAGUUGACGAGGAGGAGGUUUAUCGAAUUUUCGGCGGAUGCCUCCAAA

Experiments:
Conditions in all cases: with glucosamine-6-phosphate
glucosamine-6-phosphate [1] = variants of: B1; test: kcat; higher = faster cleavage; RNA array
How it was run: (§1)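 Sequenced MiSeq chips were the platform: E. coli RNA polymerase transcribed barcoded ribozyme variants on them in situ, and a hybridised Cy3 probe tracked these at 37 °C. After glucosamine-6-phosphate (40 μM to 10 mM) in HEPES/KCl/Mg(OAc)2 buffer was flowed in, tiles were imaged over ~14 h. Signals normalised to baseline and to non-cleaving reference variants were reduced to per-tile medians and fit to one- or two-exponential decays to obtain kobs. kcat and KM were derived through weighted Michaelis–Menten fits across concentrations.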

glucosamine-6-phosphate [2] = variants of: B1; test: self-cleavage kobs at 640 uM GlcN6P; higher = faster cleavage; RNA array
How it was run: as §1

glucosamine-6-phosphate [3] = variants of: B1; test: self-cleavage kobs at 2500 uM GlcN6P; higher = faster cleavage; RNA array
How it was run: as §1

glucosamine-6-phosphate [4] = variants of: B1; test: self-cleavage kobs at 10000 uM GlcN6P; higher = faster cleavage; RNA array
How it was run: as §1

glucosamine-6-phosphate [5] = variants of: B1; test: KM; higher = weaker cofactor use; RNA array
How it was run: as §1

glucosamine-6-phosphate [6] = variants of: B1; test: self-cleavage kobs at 40 uM GlcN6P; higher = faster cleavage; RNA array
How it was run: as §1

glucosamine-6-phosphate [7] = variants of: B1; test: self-cleavage kobs at 160 uM GlcN6P; higher = faster cleavage; RNA array
How it was run: as §1

Row | Variant | kcat (glucosamine-6-phosphate [1]) [s⁻¹] | self-cleavage kobs at 640 uM GlcN6P (glucosamine-6-phosphate [2]) [s⁻¹] | self-cleavage kobs at 2500 uM GlcN6P (glucosamine-6-phosphate [3]) [s⁻¹] | self-cleavage kobs at 10000 uM GlcN6P (glucosamine-6-phosphate [4]) [s⁻¹] | KM (glucosamine-6-phosphate [5]) [µM] | self-cleavage kobs at 40 uM GlcN6P (glucosamine-6-phosphate [6]) [s⁻¹] | self-cleavage kobs at 160 uM GlcN6P (glucosamine-6-phosphate [7]) [s⁻¹]
1 | AUAAAAGCGCCAGAACUACAGAAAUGUAGUUGACGAGGAGGAGGUAUAUCGAAUUUUCGGCGGAUGCCGCCAAA [U46A U69G] | 7.21e-05 ± 2.1e-05 | 0.000107 ± 1.7e-05 | 8.42e-05 ± 1.3e-05 | 4.27e-05 ± 1.3e-05 |  |  | 
2 | AUAAAAGCGCCAGAACUACAGAAAUGUAGUUGACGAGGAGGAGGUAUAUCGAAUUUUCGGCGGAUGCUUCCAAA [U46A C68U] | 0.00114 ± 0.00016 | 0.000233 ± 3.5e-05 | 0.000743 ± 0.00014 | 0.0009 ± 8.7e-05 | 2350 ± 540 | 3.61e-05 ± 1.2e-05 | 6.77e-05 ± 1.1e-05
3 | AUAAAAGCGCCAGAACUACAGAAAUGUAGUUGACGAGGAGGAGGUAUAUCGAAAUUUCGGCGGAUGCCUCCAAA [U46A U54A] | 0.00331 ± 0.00047 | 0.000932 ± 0.00035 | 0.00181 ± 0.00029 | 0.00334 ± 0.00047 | 1420 ± 350 | 0.000104 ± 1.9e-05 | 0.000321 ± 8.4e-05
4 | AUAAAAGCGCCAGAACUACAGAAAUGUAGUUGACGAGGAGGAGGUAUAUCGAACUUUCGGCGGAUGCCUCCAAA [U46A U54C] | 0.00402 ± 0.0012 | 0.000982 ± 0.00017 | 0.00157 ± 0.00051 | 0.00295 ± 0.00051 | 3310 ± 1300 | 4.31e-05 ± 1.1e-05 | 0.000153 ± 3.9e-05
5 | AUAAAAGCGCCAGAACUACAGAAAUGUAGUUGACGAGGAGGAGGUAUAUCGAAUUUUCGGCGGAUGGCUCCAAA [U46A C67G] | 0.000319 ± 2.1e-05 | 6.75e-05 ± 1.1e-05 | 0.000187 ± 3.5e-05 | 0.000254 ± 3.3e-05 | 2290 ± 290 |  | 
6 | AUAAAAGCGCCAGAACUACAGAAAUGUAGUUGACGAGGAGGAGGUAUAUCGAAUUUUCGGCGGAUGACUCCAAA [U46A C67A] | 0.00257 ± 0.00048 | 0.000988 ± 0.0002 | 0.00266 ± 0.00097 | 0.00209 ± 0.0006 | 1060 ± 330 | 8.65e-05 ± 2.9e-05 | 
7 | AUAAAAGCGCCAGAACUACAGAAAUGUAGUUGACGAGGAGGAGGUAGAUCGAAUUUUCGGCGGAUGCCUCCAAA [U46A U47G] | 0.00143 ± 0.00056 | 0.000647 ± 0.00013 | 0.00107 ± 0.00027 | 0.00106 ± 0.00029 |  |  | 9.77e-05 ± 3.5e-05
8 | AUAAAAGCGCCAGAACUACAGAAAUGUAGUUGACGAGGAGGAGGUAUAUCGAAUUGUCGGCGGAUGCCUCCAAA [U46A U56G] | 0.00195 ± 0.00071 | 0.000283 ± 6.8e-05 | 0.000603 ± 0.00011 | 0.00183 ± 0.00029 |  |  | 9.87e-05 ± 1.5e-05
9 | AUAAAAGCGCCAGAACUACAGAAAUGUAGUUGACGAGGAGGAGGUCUAUCGAACUUUCGGCGGAUGCCUCCAAA [U46C U54C] | 0.00487 ± 0.00041 | 0.00119 ± 0.00012 | 0.0028 ± 0.00042 | 0.00438 ± 0.0011 | 1870 ± 220 | 0.000109 ± 2e-05 | 0.000406 ± 8.6e-05
10 | AUAAAAGCGCCAGAACUACAGAAAUGUAGUUGACGAGGAGGAGGUCUAUCGAAUUUUCGGCGGAUGCCUACAAA [U46C C70A] | 0.000216 ± 5.4e-05 | 0.000105 ± 1.7e-05 | 0.000151 ± 2.5e-05 | 0.000347 ± 8.7e-05 |  |  | 5.11e-05 ± 2.3e-05
11 | AUAAAAGCGCCAGAACUACAGAAAUGUAGUUGACGAGGAGGAGGUCUAUCGGAUUUUCGGCGGAUGCCUCCAAA [U46C A52G] | 0.000634 ± 0.00015 | 7.1e-05 ± 1.4e-05 | 0.000161 ± 3.6e-05 | 0.000412 ± 7e-05 | 5990 ± 2100 |  | 
12 | AUAAAAGCGCCAGAACUACAGAAAUGUAGUUGACGAGGAGGAGGUCUAUCGACUUUUCGGCGGAUGCCUCCAAA [U46C A53C] | 0.002 ± 0.00044 | 0.000706 ± 0.00013 | 0.00155 ± 0.00033 | 0.00162 ± 0.0003 | 1380 ± 480 | 7.57e-05 ± 1.7e-05 | 0.000151 ± 4e-05
13 | AUAAAAGCGCCAGAACUACAGAAAUGUAGUUGACGAGGAGGAGGUCUAUCGAUUUUUCGGCGGAGGCCUCCAAA [U46C A53U U65G] | 0.000127 ± 3.1e-05 |  | 3.28e-05 ± 1.2e-05 | 7.63e-05 ± 2.5e-05 | 6880 ± 2800 |  | 
14 | AUAAAAGCGCCAGAACUACAGAAAUGUAGUUGACGAGGAGGAGGUAUAUCGAAUUUUCGGCGGAUGCCUCGAAA [U46A C71G] | 0.00042 ± 3.7e-05 | 9.39e-05 ± 1.2e-05 | 0.00025 ± 3.5e-05 | 0.000346 ± 3.2e-05 | 2020 ± 370 |  | 4.33e-05 ± 1.2e-05

Reference: the supplement of paper PMC7125110
